Source: paper PMC3498381, “Isolated Toll-like Receptor Transmembrane Domains Are Capable of Oligomerization” (PLoS ONE, 2012)
No end group written: not given here.

How the values were obtained:
[1] = target: T1, 7-hydroxycoumarin labeled TLR6 TMD peptide (Homo sapiens, UniProt Q9Y2C9); assay: FRET titration, TLR2-TLR6; assay type: binding; settings: nM of acceptor labeled peptide; donor coumarin-TLR6 20 nM, fluorescein-TLR2 0-1500 nM, 1 mM C14-betaine, 100 mM HEPES pH 7.4; Hill equation; read-out: Dissociation constant, TLR2-TLR6 interaction
T1 construct: we synthesized peptides for the TLR1, TLR2, and TLR6 TMDs; made in house; host or cells: chemical solid-phase synthesis on Rink Amide resin (C-terminal amide)
Method: (§1) Using the same TLR1, TLR2, and TLR6 peptides, as described above, we were able to monitor the heterotypic interactions between TLR2-TLR1 and TLR2-TLR6 using a previously reported Förster resonance energy transfer (FRET) assay. […] The dissociation constant for the TLR2-TLR1 interaction was 230.8±20.0 nM of acceptor labeled peptide and for TLR2-TLR6 it was 286.5±14.8 nM of acceptor labeled peptide (Fig. 6C). […] SE-AUC was also used to investigate the oligomeric state of the TLR2-TLR6 heterotypic interaction.
(§2) Figure 6 TLR2-TLR1 and TLR2-TLR6 Heterotypic Interactions Measured by Förster Resonance Energy Transfer. Synthetic TMD peptides were co-incubated in micelles with the FRET donor concentration fixed to be 20 nM and the FRET acceptor concentration varied from 0–1500 nM. The donor was excited at 415 nm and emission was monitored from 440–600 nm. Only donor emission is shown as the excitation-emission separation led to a high background signal seen in the acceptor channel. (A) TLR2-TLR1 donor channel. (B) TLR2-TLR6 donor channel. (C) FRET efficiency based on decrease in donor signal at increasing acceptor concentrations.
(§3) FRET was used to directly probe the heterotypic association of the synthetic peptides. FRET experiments were performed on a Horiba Fluorolog-3 using a 0.3 cm path length cuvette. […]

[2] = Sedimentation equilibrium analytical ultracentrifugation (SE-AUC); assay type: physicochemical; settings: for Oligomeric state (equilibrium model) / Average molecular weight obtained from the fit: SE-AUC; for Oligomeric state (equilibrium model): density matched 10 mM C14-betaine micelles, 100 mM HEPES pH 7.4, 25% D2O, 25 °C; for Average molecular weight obtained from the fit: peptide alone, global fit, single species model, 495 nm (FITC-TLR2) or 400 nm (coumarin-TLR6)
Method: (§4) Supplementary file pone.0048875.s003.tif: Figure S3 TLR2 Homotypic Sedimentation Equilibrium AUC. Sedimentation equilibrium profile at 495 nm of FITC-labeled TLR2 in density matched C14-betaine micelles (10 mM) in HEPES buffer (100 mM, pH 7.4). The partial specific volume and the solution density were fixed at 0.78730 mL/g and 1.031 g/mL, respectively. The data was analyzed using a global fitting routine. […] (TIF) Click here for additional data file.
as §4, with “pone.0048875.s004.tif:” for “pone.0048875.s003.tif:”, “S4 TLR6” for “S3 TLR2”, “400” for “495”, “coumarin-labeled TLR6” for “FITC-labeled TLR2”, “0.78705” for “0.78730”
as §4, with “pone.0048875.s005.tif:” for “pone.0048875.s003.tif:”, “S5 TLR2-TLR6 Heterotypic” for “S3 TLR2 Homotypic”, “7.4) in the presence of 2 equiv. of coumarin-labeled TLR6 peptide.” for “7.4).”
Equilibrium sedimentation was used primarily to determine the association state of TLR2, TLR6, and TLR2-TLR6. The experiments were performed in a Beckman XL-I analytical ultracentrifuge (Beckman Coulter) using six-channel carbon-epoxy composite centerpieces at 25 °C. Peptides were co-dissolved in trifluoroethanol (TFE) and C14-betaine. The organic solvent was removed using dry nitrogen gas and the resulting thin film of peptide/detergent mixture was dried overnight. The sample was then dissolved in buffer previously determined to match the density of the detergent component (100 mM HEPES buffer (pH= 7.4) buffer containing 25% D2O). The final concentration of C14-betaine is 10 mM in all of the samples. Peptide concentrations were determined by UV-Vis on the Beckman Coulter XL-I and dilutions were carried out to get concentrations in the desired absorbance ranges of the instrument (0.3-1) using the following extinction coefficients: 39,300 M^-1cm^-1 at 400 nm for coumarin labeled peptides and 69,000 M^-1cm^-1 at 495 nm for FITC labeled peptides. Data at different measurement speeds (30, 35 krpm) and different peptide:detergent ratios were analyzed by global curve-fitting of radial concentration gradients (measured using optical absorption) to the sedimentation equilibrium equation. Absorbance at both 400 nm and 495 nm was measured. Peptide partial specific volumes were calculated using previously described methods and residue molecular weights corrected for the 25% D2O exchange expected for the density-matched buffer. The solvent density (1.031 g/ml) was calculated using the program Sednterp. These coefficients were multiplied by the molar detergant ratio concentration units. […]
where E = baseline (zero concentration) absorbance, co is the peptide/detergent ratio of the peptide at ro, ε is the molar extinction coefficient, l is the optical path length, ω =2π*RPM, R= 8.3144 ×10^7 erg K^-1mol^-1 , T is temperature in K, M is the buoyant molecular weight of the peptide. […]

[3] = target: T2, 7-hydroxycoumarin labeled TLR1 TMD peptide (Homo sapiens, UniProt Q15399); assay: FRET titration, TLR2-TLR1; assay type: binding; settings: nM of acceptor labeled peptide; donor coumarin-TLR1 20 nM, fluorescein-TLR2 0-1500 nM, 1 mM C14-betaine, 100 mM HEPES pH 7.4; Hill equation; read-out: Dissociation constant, TLR2-TLR1 interaction
T2 construct: we synthesized peptides for the TLR1, TLR2, and TLR6 TMDs; made in house; host or cells: chemical solid-phase synthesis on Rink Amide resin (C-terminal amide)
T2 sequence (Q15399 581-601 limits assumed): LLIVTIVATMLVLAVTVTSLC
Method: as §1, §2, §3

[4] = 10 mM C14-betaine, 100 mM HEPES pH 7.4

Substance	Kd [1] [nM]	Average molecular weight obtained from the fit, in the presence of TLR6 ([2]; SE-AUC at 495 nm, FITC-labeled TLR2 with 2 equiv. of coumarin-labeled TLR6 peptide, 10 mM C14-betaine, 100 mM HEPES pH 7.4) [Da]	Oligomeric state (equilibrium model) [2]	Average molecular weight obtained from the fit [2, 4] [Da]	Kd [3] [nM]
TLR2*: TLR2 TMD chimera with nonfunctional ToxR* domain (negative phenotype) (GNRASALVSGMCCALFLLILLTGVLCGSLIN; cysteine pairing not given here; also: fused to non-functional ToxR* (S87H) and maltose binding protein, ends not given here)	286 ± 14.8	12330±506	monomer-dimer-tetramer equilibrium	14135±370	231 ± 20
TLR6*: TLR6 TMD chimera with nonfunctional ToxR* domain (negative phenotype) (GNRASITLLIVTIGATMLVLAVTVTSLCIYLGSLIN; also: fused to non-functional ToxR* (S87H) and maltose binding protein, ends not given here)			monomer-dimer equilibrium	7680±866	
